# Experimental data taken from patent publication US20170165321A1, “METHOD FOR REDUCING AND/OR DELAYING PATHOLOGICAL EFFECTS OF HUMAN IMMUNODEFICIENCY VIRUS I (HIV) OR FOR REDUCING THE RISK OF DEVELOPING ACQUIRED IMMUNODEFICIENCY SYNDROME (AIDS)” (Bionor Immuno AS, priority 2014, published 2017).
# Where no end group is shown, it is not given here.
# How the values were obtained:
# HIV-specific T-cells = settings: IMiD present during in vitro T-cell stimulation; Keersmaecker et al.; cited from earlier work
# [1] = tested on: HIV-1 expression in latently infected cell lines and primary T cells; settings: cited from earlier work
# [2] = Osmolality of reconstituted Vacc-4x drug product; assay type: physicochemical
# Procedure: The range of 10-100 mOsm/kg was defined based on the result obtained for the technical sample. Potential variability due to the four peptides is taken into account. For the drug product, approximately 1 mg of each of the four Vacc-4x peptides was used. The lyophilisate is reconstituted with 0.30 mL of WFI. Taking the acetic acid contents of the peptides listed in table 1 into account, the acetic acid content of Vacc-4x is approximately 0.40 mg in 0.30 mL of solution. The theoretical osmolality is approximately 23 mOsmol/L by calculation, which correlates well with the values determined in the Vacc-4x batches (20-23 mOsmol/kg).
# mice = test: Single-dose intravenous toxicity study in mice; assay type: in vivo, mouse
# Procedure: (§1) Toxicity studies were performed in mice and rats on the peptide composition of the vaccine in Example 2. The mouse was selected for the study to provide comparative data from a second commonly used rodent species. The test substance was a mixture of four peptides supplied as one vial containing lyophilised material for reconstitution with physiological saline, and dose levels were expressed in terms of total peptide load. The individual peptides was present in ratio 1:1:1:1 w/w giving dose levels of each peptide of 0.0075 mg/kg body weight, 0.075 mg/kg body weight and 0.75 mg/kg body weight, which are up to 500 fold the intended human dose. The test animals were divided into four groups of ten animals each (five males and five females); a saline control group and groups for low, intermediate and high doses. The test composition was administered once, by intravenous infusion into a tail vein at a dose rate of 3 ml/minute. The animals were killed at day 15 and 16 by intraperitoneal injection of sodium pentobarbitone.
# rats = test: Single-dose intravenous toxicity study in rats; assay type: in vivo, rat
# Procedure: as §1
# rabbit = test: Rabbit study of intradermal Vacc-4x with concomitant GM-CSF; assay type: in vivo
# Procedure: In a rabbit study the effect of Vacc-4x was evaluated in the presence of concomitant GM-CSF, the adjuvant used in the clinical program.
# HIV positive subjects [3] = test: Phase II dose-finding study CTN B-HIV 2/2001; assay type: in vivo, human
# Procedure: The Phase II dose-finding study (CTN B-HIV 2/2001) enrolled 40 HIV positive subjects, of which 38 completed the trial. Subjects were maintained on ART and treated with 10 immunizations at a dose of 0.4 mg (20 subjects) or 1.2 mg (20 subjects) per Vacc 4x injection, over a period of 26 weeks. Immunizations with Vacc 4x were performed following injection of rhu-GM-CSF (Leucomax [molgramostim]) as a local adjuvant. ART was interrupted from Week 26 to Week 30 to allow exposure to the subject's own virus (autologous immunization). ART was resumed from Week 30 to Week 38 to allow maturation of immune responses to the Vacc 4x peptides and to the subject's own virus. ART was discontinued from Week 38 to Week 52 when the study was formally concluded. […] One subject experienced a transient vasovagal reaction in conjunction with immunization and the DTH test at Week 26 and Week 38. A second subject experienced a vasovagal reaction in conjunction with the DTH test at Week 52. For the laboratory parameters, vital signs, and performance status, no changes attributable to immunization were observed.
# The dose-dependent differences in DTH reactions were maintained throughout the study. […] ART was interrupted at Week 38 with planned restart when CD4 counts fell to less than 200/μL or when AIDS- or HIV related events were observed (i.e. clinical practice).
# However, 14 weeks after the last interruption of ART (Week 52), the mean CD4 counts were still above 200×10^6 cells/L. No difference between the LD and the HD groups was observed. The majority of subjects remained off ART following completion of the study (Week 52); permission was given to follow the subjects until they resumed ART. The duration of treatment interruption was linked to immune responsiveness to the peptides. […] The median treatment interruption achieved for all the subjects that participated in the Vacc-4x Phase II clinical study was 31 months.
# HIV positive subjects [4] = test: Open-label re-boost follow-up study CTN BI Vacc-4x/2009/1; assay type: in vivo, human
# Text: CTN BI Vacc-4x/2009/1 was an open-label follow-up of study CTN B-HIV-2/2001 to determine whether a re-boost with Vacc-4x could reactivate or increase the immune response obtained during the immunization performed in the CTN B-HIV-2/2001 study. The secondary objectives were to evaluate: the in vivo immunogenicity of Vacc-4x by evaluation of DTH and to compare the DTH response to DTH in the initial study; the effect of Vacc-4x on CD4 counts, CD8 counts and HIV viral RNA; and the safety and tolerability of Vacc-4x. All 26 subjects included in the study received two booster administrations of Vacc-4x.
# [5] = tested on: patients infected with HIV-1; test: Phase II randomized placebo-controlled study CT-BI Vacc-4x 2007/1; assay type: in vivo, human
# Procedure: The Phase II Study CT-BI Vacc-4x 2007/1 (EudraCT Number 2007-006302-13) was performed in US and Europe (UK, Germany, Spain and Italy). The study was a randomized, double-blind, multicenter, immunogenicity study of Vacc-4x versus placebo in patients infected with HIV-1 who have maintained an adequate response to ART. The primary objective was to evaluate the effect of Vacc-4x immunizations versus placebo on CD4 counts, T-cell function (ELISPOT, T-cell proliferative responses and intracellular cytokine staining) and the response to interruption of ART. The necessity to resume ART between the interruption of ART at Week 28 and the end of the study at Week 52, due to decreased CD4 count or increased viral loads, was monitored as one of the primary efficacy endpoints.
# [6] = tested on: HIV-1 DNA (HIV-1 gag gene); test: Proviral DNA by real-time PCR in re-boosting study CT-BI Vacc-4x 2012/1; assay type: in vivo, human; settings: PP
# Procedure: The study CT-BI Vacc-4x 2012/1 (EudraCT Number: 2012-002281-12) is an open label, multicenter, follow-up, re-boosting study of subjects who previously completed the immunization regimen with Vacc-4x active and stopped ART (at Week 28) in the CT-BI Vacc-4x 2007/1 Study (EudraCT Number 2007-006302-13). No restart of ART is required. The subjects will be re-boosted with two immunizations (Visit 2 and Visit 3) of Vacc-4x, 1.2 mg peptides (12 mg/mL), with a 2 week interval between immunizations.
# HIV-1 DNA levels will be determined by real-time PCR (Taqman) assay targeting HIV-1 gag gene. Briefly, DNA for each subject at visit 2, 4, 6, 9 and 10 will be extracted from total PBMCs (1-4 million cells), eluted in appropriate storage buffer, quantified and stored at −20° C. until used. Equal amounts of DNA (≈300 ng) will be used to quantify gag and albumin genes in order to determine the number of copies of HIV-DNA per million of cells.
# There was a decrease in proviral DNA levels of approximately 50% after immunization while on ART, based on geometric means.
# [7] = single intravenous dose, total peptide load
# [8] = single intravenous infusion, up to 0.75 mg/kg of each peptide
# [9] = 26 subjects, two booster administrations
# [10] = 0.4 mg/injection, 12 immunizations
molecule,measurement,setting,value
Nc1cccc2c1CN(C1CCC(=O)NC1=O)C2=O (centres unmarked) [Lenalidomide],function of the T-cells,HIV-specific T-cells,a number of improvements in the function of the T-cells
Nc1cccc2c1C(=O)N(C1CCC(=O)NC1=O)C2=O (centres unmarked) [pomalidomide],function of the T-cells,HIV-specific T-cells,a number of improvements in the function of the T-cells
"C/C=C1\NC(=O)[C@H]2CSSCC/C=C/[C@H](CC(=O)N[C@H](C(C)C)C(=O)N2)OC(=O)[C@H](C(C)C)NC1=O [romidepsin, (1S,4S,7Z,10S,16E,21R)-7-ethylidene-4,21-bis(1-methylethyl)-2-oxa-12,13-dithia-5,8,20,23-tetraazabicyclo[8.7.6] tricos-16-ene-3,6,9,19,22-pentone]",activation of HIV-1 expression,[1],potently activates HIV-1 expression
"Vacc-4x: four synthetic peptides (Vacc-10, Vacc-11, Vacc-12, Vacc-13 acetate) corresponding to conserved domains on HIV-1 p24; SEQ ID NOs 3, 6, 11, 18 (also: acetate salts) chain 1: APTRAKRRVVQREKRAV chain 2: DRPEGIEEEGGERDR chain 3: QLLLNGSLAEEEIVI chain 4: GGAKRRVVGGAKRRVVGGQREKR",theoretical osmolality,"[2]; by calculation, approx. 0.40 mg acetic acid in 0.30 mL",approximately 23 mOsmol/L
same,osmolality determined in the Vacc-4x batches,"[2]; lyophilisate, approx. 1 mg of each peptide, reconstituted with 0.30 mL WFI",20-23 mOsmol/kg
same,safety margin over the planned human dose level,mice; from no effect level,500 fold
same,no effect level,mice; [7],> 3 mg/kg
same,adverse reactions,mice; [8],no adverse reactions
same,safety margin over the planned human dose level,rats; from no effect level,500 fold
same,no effect level,rats; [7],> 3 mg/kg
same,adverse reactions,rats; [8],no adverse reactions
same,limiting toxicology,rabbit,no limiting toxicology
same,"local intradermal reactions (erythema, edema) versus control animals",rabbit,slightly more pronounced
same,systemic reactions,rabbit,no systemic reactions
same,subjects with treatment-related AEs,HIV positive subjects [3]; 0.4 mg group (20 subjects),8 subjects
same,DTH positive reactions,HIV positive subjects [3]; 0.4 mg or 1.2 mg per injection,observed for all subjects
same,SAEs during the period of immunization,HIV positive subjects [3]; 0.4 mg or 1.2 mg per injection,No SAEs were reported
same,subjects with treatment-related AEs,HIV positive subjects [3]; 1.2 mg group (20 subjects),12 subjects
same,"DTH positive responses (induration and erythema), high dose versus low dose",HIV positive subjects [3]; 1.2 mg versus 0.4 mg,statistically significantly higher in the high dose
same,median treatment interruption,"HIV positive subjects [3]; all subjects of the Phase II study, off ART",31 months
same,subjects with treatment-related AEs,"HIV positive subjects [3]; both dose groups, 40 subjects, 10 immunizations over 26 weeks",20 subjects
same,decline in CD4 cells versus similar subjects who stopped treatment without Vacc-4x,HIV positive subjects [3]; comparison with subjects in the Netherlands,significantly slower decline in CD4 cells
same,CD4 counts during the immunization period,HIV positive subjects [3]; on ART,stable or increased
same,adverse events possibly/probably related to the study treatment,HIV positive subjects [4]; 26 subjects,60
same,patients reporting swelling related to the immunization,HIV positive subjects [4]; 26 subjects,Five
same,related adverse events that were mild,HIV positive subjects [4]; 26 subjects,98%
same,serious adverse events,HIV positive subjects [4]; 26 subjects,No patient reported serious adverse events
same,subjects reporting AEs,HIV positive subjects [4]; [9],23 subjects
same,total AEs reported,HIV positive subjects [4]; [9],74 AEs
same,duration of T cell responses induced by Vacc-4x peptides,HIV positive subjects [4]; before re-boost,up to seven
same,"effect of re-boosting on CD4, CD8 and viral load",HIV positive subjects [4]; two booster administrations,no negative effect
same,"percentage change in CD4 count between Week 28 and last CD4 assessment before resumption of ART, versus placebo",[5]; ITT analysis population,no effect compared with placebo
same,"proportion of subjects requiring resumption of ART after ART cessation at Week 28, versus placebo",[5]; ITT analysis population,did not reduce
same,time to restarting ART versus placebo,[5]; ITT analysis population,similar
same,change in HIV-1 RNA from Week 28 through to Week 52 versus placebo,[5]; after ART cessation,statistically significant difference between groups in favour of Vacc-4x
same,safety concern,[5]; in vivo,No safety concern
same,Week 52 (LOCF) viral load versus placebo,[5]; post-hoc analysis,statistically significantly lower
same,average viral load versus placebo,[5]; subgroup who remained off ART until Week 52,lower in the Vacc-4x-treated subjects than the placebo group
same,HIV-1 RNA AUC versus placebo,[5]; subjects who remained off ART at Week 52,lower in the Vacc-4x group than in the placebo group
same,viral load (VL) set point versus placebo and versus historic preART values,[5]; with rhuGM-CSF (Leukine) as adjuvant,significant reduction
same,"immunogenicity, T-cell proliferative responses",[5]; with rhuGM-CSF as adjuvant,"immunogenic, inducing proliferative responses in both CD4 and CD8 T-cells"
same,"Proviral DNA, Geometric mean","[6]; Baseline, n 26",22.3 copies/mL
same,"Proviral DNA, Mean","[6]; Baseline, n 26",98.4 copies/mL
same,"Proviral DNA, Median","[6]; Baseline, n 26",57.0 copies/mL
same,"Proviral DNA, Geometric mean ratio (Week 4/Baseline)",[6]; n 26,0.5
same,"Proviral DNA, Geometric mean","[6]; Week 4, n 26 (Table 3)",11.4 Copies/mL
same,"Proviral DNA, Mean","[6]; Week 4, n 26 (Table 3)",93.9 Copies/mL
same,"Proviral DNA, Median","[6]; Week 4, n 26 (Table 3)",34.5 Copies/mL
same,"Proviral DNA, Geometric mean","[6]; Week 4, n 27 (Table 2)",12.9 copies/mL
same,"Proviral DNA, Mean","[6]; Week 4, n 27 (Table 2)",100.8 copies/mL
same,"Proviral DNA, Median","[6]; Week 4, n 27 (Table 2)",45.0 copies/mL
same,serious adverse events,HIV-positive subjects; [10],no serious adverse events (SAEs) occurred
same,severity of adverse reactions,HIV-positive subjects; [10],mild or moderate in severity except for severe local reactions in one subject
same,antibody response to Vacc-4x peptides,HIV-positive subjects; 11 subjects,no antibody response
same,cell-mediated immune response by delayed-type hypersensitivity (DTH) skin reaction,HIV-positive subjects; 11 subjects,All subjects experienced a cell-mediated immune response
same,subjects with cell-mediated immune response by γ IFN release ELISPOT,HIV-positive subjects; 11 subjects,45 % of the subjects
same,treatment related fatigue-vertigo,HIV-positive subjects; 11 subjects,four
same,treatment related influenza-like symptoms,HIV-positive subjects; 11 subjects,two
same,treatment related irritated skin at injection site,HIV-positive subjects; 11 subjects,two
same,treatment related painful injection,HIV-positive subjects; 11 subjects,seven
same,subjects with events judged related to treatment,"HIV-positive subjects; 11 subjects, 0.4 mg/injection, 12 immunizations",nine
same,subjects with one or more adverse events,"HIV-positive subjects; 11 subjects, 12 immunizations of 0.4 mg/injection over 26 weeks, rhu-GM-CSF adjuvant",All subjects experienced one or more adverse events
